According to the nanobody polyreactivity screen of Harvey et al. (2022):

Assay: yeast display, Sf9 membrane polyspecificity reagent, FACS + sequencing; frameworks hold sequencing errors
Summary of the method: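 A nanobody's polyreactivity label depends on the gate it was sorted from. Yeast display cells were stained with 10% biotinylated, detergent-solubilized Sf9 membrane reagent for 1 hour at 4 °C, enriched on streptavidin microbeads and sorted by FACS. The low and high (top ~1%) gates were set on anti-HA fluorescence for expression and streptavidin fluorescence for reagent binding.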

Sequence | polyreactivity (PSR sort gate)
QVQLVESGGGLVQAGGSLRLSCAASGRTFYGYGMGWFRQAPGTDRELVAAIRVGGGSTYYADSVKGRFTISRDNAKNTVYLQMNILKPEDTAVYYCASAIYHYRQKDGYWGQGTQVTVSS | high polyreactivity
QVQLVESGGGLVQAGGSLRLSCAASGRTFYGYTMGWYRQAPGKERELVAAISWTGGRTYYADSVKGRFTISRDNAKNTVYLQMNSLKPEDTAVYYCAARRYQSEDVPYGYWGQGTQVTVSS | high polyreactivity
QVQLVESGGGLVQAGGSLRLSCAASGRTFYHYAMGLYRQAPGKERELVAALNRVGGTNYADSVKGRFTISRDNAKNTVYLQMNSLKPEDTAVYYCNADIVARSSYSTKYEEFYYWGLGTQVTVSS | low polyreactivity
QVQLVESGGGLVQAGGSLRLSCAASGRTFYHYTMGWSSQAPGKERELVARITRRVGSTYYADSVKGRFTISRDNTKNTVYLQMNSLKPEDTAVYYCNAKSGVYRYLLDYWGQGTQVTVTS | high polyreactivity
QVQLVESGGGLVQAGGSLRLSCAASGRTFYHYTMGWYRQAPGKERELVARITRRVGSTYYADSVKGRFTISRDNAKNTVYLQMNSLKPEDTAVYYCNDKSGLYRYLLDYWGQGTQVTVSS | high polyreactivity
QVQLVESGGGLVQAGGSLRLSCAASGRTFYINAMGWYRQAPGKERELVAAITWSGGRTYYADSVKGRFTISRDNAKNTVYLQMNSLKPEDTAVYYCNTRSYSYYVPYRYDYWGQGSQVTVSS | high polyreactivity
QVQLVESGGGLVQAGGSLRLSCAASGRTFYIYAMGWYRQAPGKERELVAAITRIDGSTYYADSVKGRFTISRDNAKNTVYLQMNSLKPEDTAVYYCAAEYGPGLTEGLYYYWGQGTQVTVSS | high polyreactivity
QVQLVESGGGLVQAGGSLRLSCAASGRTFYIYAMGWYRQAPGKERELVADITSGGSTYYADSVKGRFTISRDNAKNTVYLQMNSLKPDDTAVYYCAADWVTFYSYTEYDYWGQGSQVTVSS | low polyreactivity
QVQLVESGGGLVQAGGSLRLSCAASGRTFYIYAMGWYRQAPGKERELVARITTGGRTNYADSVKGRFTISRDNAKNTVYLQMNSLKPEDTAVYYCATQYRGRQRKYDYWGQGTQVTVSS | high polyreactivity
QVQLVESGGGLVQAGGSLRLSCAASGRTFYIYAMGWYRQAPGKERELVATIDSTGSTNYADSVKGRFTISRDNAKNTVYLQMNSLKPEDTAVYYCNADDWVGRSLRYDYWGQGTQVTVSS | low polyreactivity
QVQLVESGGGLVQAGGSLRLSCAASGRTFYIYTMGWYRQAPGKERELVATAITSGGITYYADSVKGRFTISRDNAKNTVYLQMNSLKPEDTAVYYCAADDYYGYYGFNYWGQGTQVTVSS | low polyreactivity
QVQLVESGGGLVQAGGSLRLSCAASGRTFYKNTMGWYRQAPGKERELVATIYQRGGSTYYADSVKGRFTISRDNAKNTVYLQMNSLKREDTAVYYCNARKYTQSIHYDYWGQGTQVTVSS | high polyreactivity
QVQLVESGGGLVQAGGSLRLSCAASGRTFYKYAMGWYRQAPGKERELVAAISGGGTTNYADSVKGRFTISRDNAKNTVYLQMNSLKPEDTAVYYCNAARTRWATGYDYWGQGTQVTVSS | low polyreactivity
QVQLVESGGGLVQAGGSLRLSCAASGRTFYKYGRGWYRQAPRKERELVASISSGGNTYYADSVKGRFTISRDNAKHTVYLQMNSLKPDASAVFYCAAVNYWPFYYYVYGYWGQGTQVTVSS | high polyreactivity
QVQLVESGGGLVQAGGSLRLSCAASGRTFYLYAMGWYRQAPGKERELVAAITKSGGSTYYADSVKGRFTISRDNAKNTVYLQMNSLKPEDTAVYYCATDGRWRLAGAFTGKRRTYDYWGQGTQVTVSS | low polyreactivity
QVQLVESGGGLVQAGGSLRLSCAASGRTFYLYAMGWYRQAPGKERELVDTITESVGNTYYADSVKGRFTISRDNAKNTVYLQMNSLKPEDTAVYYCAATYKYYLYQPKTLFREGDYWGQGTQVTVSS | low polyreactivity
QVQLVESGGGLVQAGGSLRLSCAASGRTFYLYAMGWYRQAPGTERELVADITSGGSTYYADSVKGRFTISRDNAKNTVYLQMNSLKPEDTAVYYCAADWVTFYSYTEYDYWGQGTQVTVSS | low polyreactivity
QVQLVESGGGLVQAGGSLRLSCAASGRTFYLYGMGWYRQAHGKETELVAAITLSDGSTYYADSVKGRFTISRDNAKNTVYLQMNSLKPEDTAVYYCAARDYPFPYAMNYWGQGTQVTVSS | low polyreactivity
QVQLVESGGGLVQAGGSLRLSCAASGRTFYNAMGWYIQAPGKERELVAAITTGGGTKYADSVKGRFTISRDNAKNTVYLQMHSLQPEDTAVYYCNTDAWYHFYHGAHKFDYWGQGTQVTVSS | low polyreactivity
QVQLVESGGGLVQAGGSLRLSCAASGRTFYNAMGWYRPAPGKERELVAAISGSGGSTYYADSVKGRFTISRDNAKNTVYLKMNSLKPEDTAVYYCAARSVWWQVSQGNYWGQGTQVTVSS | low polyreactivity
QVQLVESGGGLVQAGGSLRLSCAASGRTFYNNAMGWYRQAPGKERELVATINNRGGTTYYADSVKGRFTISRDNAKNTVYLQMNSLKPEDSAVYYCAKSAQRYSYRYYYWGQGTQVTVSS | high polyreactivity
QVQLVESGGGLVQAGGSLRLSCAASGRTFYNYAMGWYRQAHGKERELVAAIDWGSDSTYYADYVKGRFTISRDNANNTVYLQMNRLKPEDTAVYYCAAYLVSVNSRTYDYWGQGTQVTVSS | low polyreactivity

Sequence | polyreactivity (PSR sort gate)
QVQLVESGGGLVQAGGSLRLSCAASGRTFYNYAMGWYRQAPGKEREFVAAISSSGGSTYYADSVKGRFTISRDNAKNTVYLQMNSLKPEDTAVYYCAAYYISFDYWGQGTKVTVSS | high polyreactivity
QVQLVESGGGLVQAGGSLRLSCAASGRTFYNYAMGWYRQAPGKERELVATINRGVSTNYADSVKGRFTISRDNEKNTVYLQMNSLKPEDTAVYYCAARKRPPYGYGYWGQGTQVTVSS | high polyreactivity
QVQLVESGGGLVQAGGSLRLSCAASGRTFYPNAMGWYRQAPGKERELVAAISWSGGSTYYADSVKGRFTISRDNAKNTVYLQMNSLKPEDTAVYYCNARYLYWALSYDYWGQGTQVTVSS | low polyreactivity
QVQLVESGGGLVQAGGSLRLSCAASGRTFYPNAMGWYRQAPGKERELVAAITRSGGRTYYADSVKGRFTISRDNAKNTVYLQMNSLKPEDTAVYYCNADLYYHYYKYEYWGQGTQVTVSS | low polyreactivity
QVQLVESGGGLVQAGGSLRLSCAASGRTFYPNTMGWYRQAPGKERELVATITRSGGNTYADSVKGRFTISRDNAKNTVYLQMNSLKPEDTAVYYCNADQRRSYWLVSQRYDYWGQGTQVTVSS | low polyreactivity
QVQLVESGGGLVQAGGSLRLSCAASGRTFYPNVMGWYRQAPGKERELVAAISRGGSTYYADSVKGRFTISRDNAKNTVYLQMNSLKPEDTAVYYCAATHYGHSISYWFDYWGQGTQVTVSS | high polyreactivity
QVQLVESGGGLVQAGGSLRLSCAASGRTFYPNVMGWYRQAPGKERELVAAITSGGSTYYADSVKGRFTISRDNAKNTVYLQMNSLKPEDTAVYYCAVAYAGGGSRKYDYWGQGTQVTVSS | low polyreactivity
QVQLVESGGGLVQAGGSLRLSCAASGRTFYPYAMGWYRQAPGKERELVAAIDYSSATTYYADSVKGRFTISRDNAKNTVYLQMNSLKPEDTAVFYCARVGIGVGWTKLNYWGQGTQVTVSS | low polyreactivity
QVQLVESGGGLVQAGGSLRLSCAASGRTFYPYAMGWYRQAPGKERELVAAISWNGGRTYYADSVKGRFTISRDNAKNTVYLQMTSLKPEDTAVYYCAADTAYYGFDYWGQGTQVTVSS | low polyreactivity
QVQLVESGGGLVQAGGSLRLSCAASGRTFYPYAMGWYRQAPGKERELVARITSGGSTYADSVKGRFTISRDNAKNTVYLQMNSLKPEDTAVYYCNTDGYLLSRYPYSVQLYEYWGQGTQVTVSS | high polyreactivity
QVQLVESGGGLVQAGGSLRLSCAASGRTFYPYAMGWYRQAPRKERELVAAISRSGGSTYADSVKGRFTISRDNAKNTVYLQMNSLKREDTAVYYCATRRKTYLSFNYDYWGQGTQVTVSS | low polyreactivity
QVQLVESGGGLVQAGGSLRLSCAASGRTFYRNAMGWYKQAPGKERELVAAISRSGGSTYYADSVKGRFTISRDNAKNTVYLQMNSLKPEDTAVYYCNKRYPLGTEYYYWGLGTQVTVSS | high polyreactivity
QVQLVESGGGLVQAGGSLRLSCAASGRTFYRNAMGWYRQAPGKERELVAAISSDDSTNYADSVKGRFTISRDNAKNTVYLQMNSQKPEDTAVYYCNADYYYGYEYDYWGQGTQVTVSS | low polyreactivity
QVQLVESGGGLVQAGGSLRLSCAASGRTFYRNAMGWYRQAPGKERELVAAISSRGGSTYYADSVKGRFTISRDNAKNSVYLQMNSLKPEDTAVYYCAATYGYGGDYDYWGQGTQVTVSS | high polyreactivity
QVQLVESGGGLVQAGGSLRLSCAASGRTFYRNAMGWYRQAPGKERELVASIRRNGGSTYYADSVKGRFTISRDNAKNTVYLQMNSLKPEDTAVYYCAARSTRRRIYGYWGQGSQVTVSS | high polyreactivity
QVQLVESGGGLVQAGGSLRLSCAASGRTFYRNAMGWYRQAPGKERELVATITRGGSTNYADSVKGRFTISRDNAKNTVYLQMNSLKPEDTAVYYCAAAQPGTNAYRVGSWGQGTQVTVSS | high polyreactivity
QVQLVESGGGLVQAGGSLRLSCAASGRTFYRNAMGWYRQATGKERELVAAISRGDSTYYADSVKGRFTISRDNAKKTVYLQMNSLKPEDTAVYYCAKRARRIGDVNMGSWGQGTQVTVSS | low polyreactivity
QVQLVESGGGLVQAGGSLRLSCAASGRTFYRNTMGWYRQAPGKERELVAAITRSGGSTYYADSVKGRVTISRDNAKNTVYLQMNSLKPEDTAVYYCAASRTYYAPYGYWGQGTQVTVSS | high polyreactivity
QVQLVESGGGLVQAGGSLRLSCAASGRTFYRSALVWYRQAPGKERELVAAISYNGGSTFYADSVKGRFTISRDNAKYTVYLQMNSLKPEDTAVYYCAAGPRGTGKYYWGQGTQVTVSS | high polyreactivity
QVQLVESGGGLVQAGGSLRLSCAASGRTFYRYAMGSYRQAPGKEREFVAVISTDGSSTYYADSVKGRFTISRDNAKNTVYLQMNSLKPEDTAVYYCNKYVYGHKYGYRYSGVQDYYYWGQGTQVTVSS | high polyreactivity
QVQLVESGGGLVQAGGSLRLSCAASGRTFYRYAMGWYRQAPGKEREFVAAISNGGSNTRYADSVKGRFTISRDNAKNTVYLQMNSLKPEDTAVYYCAADYKRNQEVDYWGQGTQVTVSS | high polyreactivity
